The nanobody polyreactivity screen of Harvey et al. (2022)

assay: yeast display, Sf9 membrane polyspecificity reagent, FACS + sequencing; frameworks hold sequencing errors
Procedure, shortened: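 Synthetic nanobody libraries on Saccharomyces cerevisiae BJ5465 were galactose-induced for 36–48 hours, stained 1 hour at 4 °C with 10% biotinylated, detergent-solubilized Sf9 membrane reagent and enriched on streptavidin microbeads. FACS then separated cells into low and high (top ~1%) gates by anti-HA (expression) and streptavidin (reagent binding) fluorescence. Genes were colony-PCR amplified, MiSeq 2 × 250 sequenced and CDR-length filtered. A clone's polyreactivity label is that of its gate of origin.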

| Sequence | polyreactivity (PSR sort gate) |
| --- | --- |
| QVQLVESGGGLVQAGGSLRLSCAASGSTFHWYDMGWYRPAPGKERELVAGINSSGDGTYYADSVKGRFTISRDNAKNTVYLQMNSLKPEDTAVYYCAAPWWYYGVPYQTNKYDYWGQGTQVTVSS | low polyreactivity |
| QVQLVESGGGLVQAGGSHRLSCAASGRIFRPYAMGWYRQAPGKEREFVATITRSVGRTYYADSVKGRFTISRDNAKNTVYLQMNSLKPEDTAVYYCATKYIRGTRADVYRFDYWGQGTQVTVSS | high polyreactivity |
| QVQLVESGGGLVQAGGSLRLSCAASGFTFANNAMGWYRQAPGKERELVAAITRGDSTYYAESVKGRFTISRDNAKNTVYLQMNSRKPEDTAVYYCAKEWYFPIYDYWGQGTQVTVSS | low polyreactivity |
| QVQLLESGGGLVQAGGSLRLSCAASGRIFGVNAMGWYRQAPGKERELVAAISAGGGNTYYADSVKGRFTISRDNAKNSVYLQMNSLKPEDTAVYYCNVQRSLRMDYWGQGTQVTVSS | high polyreactivity |
| QVQLVESGGGLVQAGGSLRLSCAASGRIFIYYTMGWYRPAPGKERELVASITWSGGRTYYADSVKGRFTISRDNAKNTVYLQMNSLKPEDNAVYYCNAGYSIGLVAYGYWGQGTQVTVSS | low polyreactivity |
| QVQLVESGGGLVQAGGSLRLSCAASGPTFFYYAMGWYRQAPGKERELVAAIRRSGGRTRYADSVKGRFTISRDNAKNTVYLQMNSLKPEDTAVYYCAADDGTHRRGYDYWGQGTQVTVSS | low polyreactivity |
| QVQLVESGGGLVQAGGSLRLSCAASGRIITWYAMGCYRQAPGKERELVAAISWSGGSTYYADSVTGRFTISRDNAKNTVYLQMNSLKPEDTAVYYCNKVTVTGLYDYWGQGTQVTVSS | high polyreactivity |
| QVQLEDSGGGLVQAGGSLRLSCAASGRTFNKYAMGWYRQAPGKERELVAAINTSGGSTYYADSVKGRFTISRDNAKNTVYLQMNSLKPEDTAVYYCAAQSRSVYGRSYGYWGQGTQVTVSS | high polyreactivity |
| QVQLVESGGGLLQAGGSLRLSCAASGSIFQYKAMGWYRQAPGKERELVAAINGGGSTYYADSVKGRFTISRDNEKNTVYLQMNSLKPEYTAVYYCAADGGAYYYRGPGKFGIEDSWGQGTQVTVSS | low polyreactivity |
| QVQHVESGGGLVQAGGSLRLSCAASGFIFRSYAMGWFRQAPGKERELVAAISNGVITNYADSVKGRFTISRDNSKNTVYLQRNSLKPEDTAVYYCDADYNSQDDYWGQGTQVTVSS | low polyreactivity |
| QDQLVESGRGLVEAGGSLRLSCAASGRILGRYAMGWNRQAPGKERELVAAISRSGGTTYYADSVKGRFTISRDNAKNTVYLEMNSLKPEDTAVYDCARLRVYAAVYDYWGQGTQVTVSS | high polyreactivity |
| QVHLVESGGGLVQAGGSLRLSCAASGRTFINYAMGWYRQAPGKERELVAAITTGGRTNYADSVKGRFTISRDNAKNTVYLQMNSLKPEDTAVYYCAADRYYWGRYTLNYWGQGTQVTVSS | low polyreactivity |
| QVQLVESGGGLVQAGGSLRLSCAASGSIFLWNAMGWYRQAPGKEREFVASITSRGGSTYYADSVKGRFTISRDNAKNTVYLQMNSLKPEDTAVYYCAAVRSKYLYYQGGYSSYGYWGQGTQVTVSS | high polyreactivity |
| QVQLVESAGGLVQAGGILRLSCAASGGIFRGYAMGWYRQAPGKERELVATIRSSGRTNYADSVKGRFTISRDNAKNTVYLQMNSLKPEDTAVYYCNKRRWWQYDRWGDWVLGGDDYWGQGTQVTVSS | low polyreactivity |
| QVQLVESGGGLVQAGGSLRLSCAASGNNFVYNPMGWYRPAPGKERELVAAIDSGGSTNYADSVKGRFTISRDNAKNTVYLQMNSLKPDDTAVYYCAADYFSTYRTIYYYWGQGTQVTVSS | low polyreactivity |
| QVQLVESGGGLVQAGGSLRLSCAASGRIFTIYAMGWYRQAPAKARELVAAISDRGTRTYYADSVKGRFTISRDNAKNTVFLKMNSLKPEDTAVYYCASDALYTYGYDYWGKGTQVTVSS | low polyreactivity |
| QVQLVESVGGLVKAGVSLRLSCAASGYIFPYYAMGWYRQAPGKERELVAAISRSGGGTYYADSVKGRFTISRYNAKNTVYFQMKSLKPVVTAVYYFNRRSGQVDVYDYWGQGTKVTVSS | low polyreactivity |
| QVQLVESGGGLVQAGGSLRLSCAASGSIFTWYAMGWYRQAPGKERELVAAITRGGSTYADSVKGRFTISRDNAKNTVYLQMNSLKPEDTAVYYCNAVYGVYDFNYWGQGTQVTVSS | low polyreactivity |
| QVQLVESGGGLVQAGGSLRLSCAASGLTFVTYVMGWYRLAPGKERELVAAISYSGGSTYYADSVKARFTISRDNAKNTVYLLMNSLKPEDTAVYYCAAEWYGYEEDDYWGQGTQVTVSS | low polyreactivity |
| QVQLVESGGGLVQAGGSLRLSCAASGRTFPYNAMVWYRQAPGKERELVARITSGVRTYYADSVKGRFTISRDNAKNTVYLQMNSLKPEDTAVYYCAATTYNRFYRAPTSKYDYWGQGTQVTVSS | high polyreactivity |
| QVQLQESGGGLVQAVGSLRLSCAASGYISSWYPMGWYRQAPGKEREFVATIAPGATTYYADSVKGRFTISRDYAKKTVYLQMNSLKPEDTAVYYCAAGPEKNDFYSYWGQGTQVTVSS | low polyreactivity |
| QVQLVESWGGLVQAGGSLRLSCAASGSTFILYAMGGYRQAPGNERELVAAITSRGVSTYYADSVKGRFTISRDNAKNTVYLQMNSLKPEDTAVYNWAADQYQASYYYWGQGTQVTVSS | low polyreactivity |

| Sequence | polyreactivity (PSR sort gate) |
| --- | --- |
| QVQLVESRGGLVQAGGSLRLSCAASGFTFIGYAMGWYRPEPGKERELVAPITQSGGSTFYADSVKGRFTISRENAKNTVYLQMNSLKPEDTAVDDCNAYRKFRYCGQGTQVTVSS | low polyreactivity |
| QVQLVESGGGLVQAGGSLRLSCAASGFIFGSYAMGWYRQAPGKERELVAAITRSGGNTYYADSVKVRFTISRDNAKNTVYLQMNSLKPEDTAVYYCAAYSGYWYDYWGQGTQVTVSS | high polyreactivity |
| QVQLVESGGGLVQAGGSLRLSCAASGRIFPVYVMGSYREAPGKEREFVASISWRGGSTFYADSVKGRFTISRDNAKNTVYLQMNSLKPEDTAVYYCAADYWSSDSSRGTMYYWGQGTQVTVSS | low polyreactivity |
| QVQLVESGGGLVQAGGSLRLSCAASGRIFSVYTKGWYRQAPGKERELVATISSGGRTNYADSVKGRFTISRDNAKNTVYLQINSLKPEDSAVYYCAAVPYGFVGYDDYWGQGSQVTVSS | low polyreactivity |
| QVQLVESGGGLVQAGGSLRLSCAASGFIFKYYTMGWYRPAPGNERELVAAISKNAGSTYYADSVKGRFTISRDNAKNTVYLQMNSLKPEDTAVYYCARTYSTWYYYWGQGTQVTVSS | high polyreactivity |
| QVQLVESGGGLVQAGGSLRLSCAASGRIFSHYAMGWYRQAPGKEREFVAAITYSGGSTYYADSVKGRFTISRDNAKNTVYLQMNSLKPEDTAVYYCNAKGYAKYYYWGQGTQVTVSS | high polyreactivity |
| QVHLVESGGCLVQAGGTLRLSCAASGFTYKWYAMGWYRQAPGKERELVATITIGGRTNYADSVKGRFTISRDNAKNTVYLQMNSLKTEETAVYYCATYFVGLRLSDYDYWGQGTQVTVSS | low polyreactivity |
| QVQLVESGGALVQAGGSLRLSSAASGITFSRYAMGWYRQAPGKERELVARISSSGGSTNYADSVKGRFTISRDNAKNTVYLQMNSLKPEDTAVYYCAGATRGKVARRVTFDYWGQGTQVTVSS | high polyreactivity |
| QVQLVESGGGLVQAGGILRLSCAASGSTMGYYPMGWYRQEPGKERELVAAIRYSDGNTYYADSVKGRFTISRDTAKNTVYLQMNSLKPEDTAVYYCAADGGYYGRDYWGQGTQVTVSS | high polyreactivity |
| QVQLVESGGGLVQAGGSLRLICAASGRTFNGYAMGWYRQAPGKERELVAAINASGGRTYYADSVKGRFTISRDNAKNTVYLQMNSLKPEDTAVYYCNARRYHWSVYYYDYWGQGTQVTVSS | high polyreactivity |
| QVQLVESGGGLVQAGGSLRISCAASGSIFDSKAMGWYRQAPGKERELVASFTSSGGSTYYADSVKGRFTISRDNAKNTVYLPRNSRKPEDTAVYYCAADSYKTIQDAYDYWGQGTQVTVSS | high polyreactivity |
| QVQLVESGGGLVQAGGSLRLSCAASGRTIRGYAMGWYRQAPGKERELVAAITRSGGSTFADSVKGRFTISRDNAKNTVYLQMNSLKPEDTAVYYCAADRGYKYYYWGQGTQVTVSS | high polyreactivity |
| QVQLVESGGGLVQAGGSHRLSCAASGSTFNYYAMGWYRQAPGKERELVAAISRGGSTYYADSVKGRFTISRDNAKNTVYLQMNSLKPEDNAVYYCHARPTRIYHGMGFWGQGTQVNVSS | low polyreactivity |
| QVQLVESGGGLVQAGGSLRLSCAASGRTYGYYAMGWYRQAPGKERELVAAITRSGGSTYYADSVKGRFTISRDNAKNTVYLQMNSLKPEDTAVYYCNAVYYKGYGYWGQGSQVTVSS | high polyreactivity |
| QVQLVESGGGLVQAGGSLRLSCAASGFIFWKNAMGWYRQAPGKERELVAAISWSGGRTYYADSVKGRFTISRDNAKNTFYLQINSLKPEETAVYYCNAAGRYKPGAPYDYWGQGTQVTVSS | low polyreactivity |
| QVQLVESGGGLVQAGGSLRLSCAASGRIFRINAMGWYRQAPGKERELVASISRRGGNTYYADSVKGRFTISRDNAKNTVYLQMNSLKPEDTAVYYCAADTYQERTFDYWGQGTQVTVSS | low polyreactivity |
| QVQLVESGGGLVQAGGSLRLSCAASGFTFYAYAMGWYRPAPGKERELVAGISWSGGSTYYADSVKGRFTISRDNAKNTVYLQMNSLKPEDTAVYYCAAYSIAELWEYYYWGQGTQVTVSS | low polyreactivity |
| QVQLVESGGGLVQAGGSLRLSCAASGRTFHGYAMGWYRQAPGKERELVARINWSDGRTYYADSVKGRFTISRDNAKNTVYLQMNSLKPVDTAVYYCAADKNVSYAPAWFYYWGQGTQVTVSS | low polyreactivity |
| QVHLLESGGGLDHAGGSLRLSCAASGRIFRYYFMGWYRQAPGKERELVAAISRGGRTYYADSVKGRFTISRDNAKNTVYLQMNSLKPEDTAVYYCDAVITQTDTGYGPSFRVYYWGQGTKVTVSS | high polyreactivity |
| QVQLLESGGGLVQAGGSLRLSCAASGSIFGGYSMGWYRQAPGKERELVAAISWSGASTYYADSVKGRFTISRDNATTTVSLQMNSLKPEDTAVYSCAARSRVDLARSGYWGQGCQVTVSS | low polyreactivity |
| QVQLVESGGGLVQAGGSLRLSCAASGRIFKTYAMGWYRQAPGKERELVAAITWDVVRTYYADSVKGRFTISRDNAKNTVYLQMNSLKPEETAVYYCAAEGIRRSQRFNYWGQGTQVTVSS | high polyreactivity |
